# From PMC5175334
# B1: full-length wild-type TRBP (TRBP-WT), lentivirally expressed in HDLECs [human] / S6K2 (S6 kinase 2), endogenous [human (endogenous in HDLEC)] (parent)
# chain 1: MSEEEQGSGTTTGCGLPSIEQMLAANPGKTPISLLQEYGTRIGKTPVYDLLKAEGQAHQPNFTFRVTVGDTSCTGQGPSKKAAKHKAAEVALKHLKGGSMLEPALEDSSSFSPLDSSLPEDIPVFTAAAAATPVPSVVLTRSPPMELQPPVSPQQSECNPVGALQELVVQKGWRLPEYTVTQESGPAHRKEFTMTCRVERFIEIGSGTSKKLAKRNAAAKMLLRVHTVPLDARDGNEVEPDDDHFSIGVGSRLDGLRNRGPGCTWDSLRNSVGEKILSLRSCSLGSLGALGPACCRVLSELSEEQAFHVSYLDIEELSLSGLCQCLVELSTQPATVCHGSATTREAARGEAARRALQYLKIMAGSK
# chain 2: MAAVFDLDLETEEGSEGEGEPELSPADACPLAELRAAGLEPVGHYEEVELTETSVNVGPERIGPHCFELLRVLGKGGYGKVFQVRKVQGTNLGKIYAMKVLRKAKIVRNAKDTAHTRAERNILESVKHPFIVELAYAFQTGGKLYLILECLSGGELFTHLEREGIFLEDTACFYLAEITLALGHLHSQGIIYRDLKPENIMLSSQGHIKLTDFGLCKESIHEGAVTHTFCGTIEYMAPEILVRSGHNRAVDWWSLGALMYDMLTGSPPFTAENRKKTMDKIIRGKLALPPYLTPDARDLVKKFLKRNPSQRIGGGPGDAADVQRHPFFRHMNWDDLLAWRVDPPFRPCLQSEEDVSQFDTRFTRQTPVDSPDDTALSESANQAFLGFTYVAPSVLDSIKEGFSFQPKLRSPRRLNSSPRAPVSPLKFSPFEGFRPSPSLPEPTELPLPPLLPPPPPSTTAPLPIRPPSGTKKSKRGRGRPGR
# Variants of: B1
# Experiment: proximity ligation assay (PLA) in cells
# Conditions: with S6K2 (S6 kinase 2), HDLECs transduced with TRBP-AA lentivirus (600 ml/80 000 cells), endogenous TRBP also present, parent: 31, read off a plot
row,Variant,response (PLA events per HDLEC)
1,chain 1 S283A S286A,20

# Same assay, conditions: with S6K2 (S6 kinase 2), HDLECs transduced with TRBP-DD lentivirus (200 ml/80 000 cells), endogenous TRBP also present, parent: 31, read off a plot
row,Variant,response (PLA events per HDLEC)
1,chain 1 S283D S286D,7

# Variants of: B1
# Experiment: co-immunoprecipitation, band quantification
# Conditions: with S6K2, lentivirally over-expressed in HEK293 cells; HEK293 cells over-expressing S6K2 and TRBP-WT or TRBP-DD; parent: 1; read off a plot
row,Variant,ratio to parent
1,chain 1 S283D S286D,0.16
